What all share (experiment): SPR, antibody captured, C2 as analyte;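 further: biacore SPR at 37 °C, anti-C2 mAbs captured via goat anti-human IgG on CM5 chips, double-referenced sensorgrams fit to a 1:1 kinetic or steady-state model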
(In general: In SPR one partner is held on a chip, and binding of the other changes the refractive index at the surface.)

The target of one assay is T1, human C2 I272A (human, UniProt P06681 21-752).
T1 sequence: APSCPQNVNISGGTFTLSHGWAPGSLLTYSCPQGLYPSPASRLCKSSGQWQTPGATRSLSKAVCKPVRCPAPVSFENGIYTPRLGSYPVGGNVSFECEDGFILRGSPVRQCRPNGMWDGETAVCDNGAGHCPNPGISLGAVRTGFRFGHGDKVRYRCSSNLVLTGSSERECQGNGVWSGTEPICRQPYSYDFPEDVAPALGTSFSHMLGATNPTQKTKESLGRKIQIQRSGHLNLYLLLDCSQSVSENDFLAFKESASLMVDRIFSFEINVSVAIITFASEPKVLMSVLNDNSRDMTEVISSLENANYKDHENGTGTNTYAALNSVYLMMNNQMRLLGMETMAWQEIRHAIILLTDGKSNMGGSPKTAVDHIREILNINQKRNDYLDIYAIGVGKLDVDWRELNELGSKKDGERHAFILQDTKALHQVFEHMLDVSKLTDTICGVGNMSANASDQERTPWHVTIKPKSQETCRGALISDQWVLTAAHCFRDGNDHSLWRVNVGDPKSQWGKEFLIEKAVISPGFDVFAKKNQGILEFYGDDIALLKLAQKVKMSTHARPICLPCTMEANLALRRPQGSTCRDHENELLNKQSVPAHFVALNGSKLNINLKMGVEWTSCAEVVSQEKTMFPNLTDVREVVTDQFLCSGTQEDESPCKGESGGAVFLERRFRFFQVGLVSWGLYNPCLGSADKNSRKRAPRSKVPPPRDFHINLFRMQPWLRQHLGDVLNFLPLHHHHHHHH

The target in a further assay is T2, human C2 T317A (human, UniProt P06681 21-752).
T2 sequence: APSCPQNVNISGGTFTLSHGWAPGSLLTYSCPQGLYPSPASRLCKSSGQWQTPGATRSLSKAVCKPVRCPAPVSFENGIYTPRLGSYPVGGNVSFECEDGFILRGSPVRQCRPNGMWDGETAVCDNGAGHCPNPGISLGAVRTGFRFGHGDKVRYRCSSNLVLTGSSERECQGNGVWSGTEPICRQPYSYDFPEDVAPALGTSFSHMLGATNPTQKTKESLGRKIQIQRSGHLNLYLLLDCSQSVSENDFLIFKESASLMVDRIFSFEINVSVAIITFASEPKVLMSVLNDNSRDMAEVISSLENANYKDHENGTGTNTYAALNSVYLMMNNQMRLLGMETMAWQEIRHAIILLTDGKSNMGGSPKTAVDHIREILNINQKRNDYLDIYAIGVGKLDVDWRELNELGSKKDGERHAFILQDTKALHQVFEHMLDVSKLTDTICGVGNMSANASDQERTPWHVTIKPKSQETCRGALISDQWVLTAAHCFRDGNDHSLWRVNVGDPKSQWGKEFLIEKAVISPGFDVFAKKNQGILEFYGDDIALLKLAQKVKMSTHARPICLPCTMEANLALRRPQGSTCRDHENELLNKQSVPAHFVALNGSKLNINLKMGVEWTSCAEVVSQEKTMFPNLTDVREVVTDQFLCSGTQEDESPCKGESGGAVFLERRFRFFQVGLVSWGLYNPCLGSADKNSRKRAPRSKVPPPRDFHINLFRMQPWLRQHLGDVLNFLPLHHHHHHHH

The target of the next assay is T3, human C2 H446A (human, UniProt P06681 21-752).
T3 sequence: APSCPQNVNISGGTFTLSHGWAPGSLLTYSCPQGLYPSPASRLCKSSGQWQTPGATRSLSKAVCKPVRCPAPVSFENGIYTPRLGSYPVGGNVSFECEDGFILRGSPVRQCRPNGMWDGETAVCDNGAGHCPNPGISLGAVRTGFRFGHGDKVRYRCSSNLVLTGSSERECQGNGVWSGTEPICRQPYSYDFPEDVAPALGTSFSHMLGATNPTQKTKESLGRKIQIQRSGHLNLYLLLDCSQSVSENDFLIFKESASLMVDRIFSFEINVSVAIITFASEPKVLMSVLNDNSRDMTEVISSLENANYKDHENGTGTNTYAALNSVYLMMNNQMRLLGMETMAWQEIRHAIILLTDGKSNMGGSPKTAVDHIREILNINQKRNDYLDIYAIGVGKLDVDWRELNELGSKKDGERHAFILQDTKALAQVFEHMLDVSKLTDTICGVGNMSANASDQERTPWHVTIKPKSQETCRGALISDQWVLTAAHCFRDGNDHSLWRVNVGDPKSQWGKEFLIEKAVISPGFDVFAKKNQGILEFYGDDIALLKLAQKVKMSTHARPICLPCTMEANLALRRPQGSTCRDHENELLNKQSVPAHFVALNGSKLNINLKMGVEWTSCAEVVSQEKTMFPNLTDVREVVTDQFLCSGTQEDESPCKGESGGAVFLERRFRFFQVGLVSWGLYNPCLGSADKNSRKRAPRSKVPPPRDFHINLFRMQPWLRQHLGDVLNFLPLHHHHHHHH

The next assay concerns the target T4, human C2 V722A (human, UniProt P06681 21-752).
T4 sequence: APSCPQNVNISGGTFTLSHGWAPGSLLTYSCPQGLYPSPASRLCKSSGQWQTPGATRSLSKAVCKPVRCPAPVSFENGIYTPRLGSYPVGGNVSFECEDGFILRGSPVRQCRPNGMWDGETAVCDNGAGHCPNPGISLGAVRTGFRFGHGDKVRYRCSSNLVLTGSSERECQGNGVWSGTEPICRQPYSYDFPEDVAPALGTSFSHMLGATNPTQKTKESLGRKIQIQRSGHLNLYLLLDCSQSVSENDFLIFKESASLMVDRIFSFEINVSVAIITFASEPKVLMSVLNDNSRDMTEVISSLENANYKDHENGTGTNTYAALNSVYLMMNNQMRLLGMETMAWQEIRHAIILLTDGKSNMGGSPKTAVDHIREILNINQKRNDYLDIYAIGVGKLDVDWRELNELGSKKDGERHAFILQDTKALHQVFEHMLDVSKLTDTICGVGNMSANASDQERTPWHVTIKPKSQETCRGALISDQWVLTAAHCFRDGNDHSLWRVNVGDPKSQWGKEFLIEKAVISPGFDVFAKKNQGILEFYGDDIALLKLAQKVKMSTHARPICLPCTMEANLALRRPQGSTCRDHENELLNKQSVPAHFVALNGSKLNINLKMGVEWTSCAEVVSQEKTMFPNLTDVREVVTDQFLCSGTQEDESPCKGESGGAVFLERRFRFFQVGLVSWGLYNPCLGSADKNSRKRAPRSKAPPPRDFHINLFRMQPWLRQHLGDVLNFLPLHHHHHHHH

For orientation: Kd means a measure of binding affinity in units of concentration. Read a low Kd as a tighter complex.

B1: RF16-226 (antibody, human IgG4 S228P, lambda)
heavy: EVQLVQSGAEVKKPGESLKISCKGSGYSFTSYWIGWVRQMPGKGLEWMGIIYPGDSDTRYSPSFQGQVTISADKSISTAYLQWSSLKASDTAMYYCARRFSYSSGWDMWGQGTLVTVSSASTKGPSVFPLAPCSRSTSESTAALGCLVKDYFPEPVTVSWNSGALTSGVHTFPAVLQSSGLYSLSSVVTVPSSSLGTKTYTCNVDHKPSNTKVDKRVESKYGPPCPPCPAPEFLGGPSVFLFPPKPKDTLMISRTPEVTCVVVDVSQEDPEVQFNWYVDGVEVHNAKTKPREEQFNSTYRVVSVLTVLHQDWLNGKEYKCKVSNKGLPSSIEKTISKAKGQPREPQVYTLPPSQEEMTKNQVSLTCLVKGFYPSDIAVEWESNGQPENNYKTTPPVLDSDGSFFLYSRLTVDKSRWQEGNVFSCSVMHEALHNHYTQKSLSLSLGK
light: SYELTQPPSVSVSPGQTARITCSGDALTSKYVAWYQQKSGLAPLLVIYEDTRRPSGIPAKFSGSSSGSVATLTISGAHGDDEADYYCYSTDASGHQRVFGGGTKLTVLSQPKAAPSVTLFPPSSEELQANKATLVCLISDFYPGAVTVAWKADGSPVKAGVETTKPSKQSNNKYAASSYLSLTPEQWKSHRSYSCQVTHEGSTVEKTVAPTECS
notes: pH-dependent anti-C2 antibody from a phage display library; also called WT
Regarding B1, the Kd in the assay with human C2 I272A was determined as 10.4 nM; in the assay with human C2 T317A it was 9 nM; with human C2 H446A, 16.3 nM; with human C2 V722A, 95.2 nM.

The values are drawn from US20220332804A1 (CSL INNOVATION, published 2022).
